Experimental findings from publication PMC3605151, “The Common Structural Architecture of Shigella flexneri and Salmonella typhimurium Type Three Secretion Needles” (PLoS Pathogens, 2013) are described below.

The data set concerns the molecule itself. Nature of the data set: in vitro polymerisation into needles, seen by transmission electron microscopy and solid-state NMR; purified subunit polymerised at 0.2 mM, 37°C, sixteen days; needles ultra-centrifuged for magic-angle spinning solid-state NMR at 5.5°C.

B1: MxiH, wild-type Shigella flexneri T3SS needle subunit (recombinant, His tag cleaved) (natural protein)
chain: GHMSVTVPDKDWTLSSLSETFDDGTQTLQGQLTSALNALAENPSNPQLLAEYQSKLSEYTLYRNAQSNTVKVIKDVDAAIIQNFR
modifications: 15N and 13C isotope labelling
notes: non-native N-terminal residues glycine and histidine left after cleavage by tobacco etch virus protease (told in words); MxiH, T3SS needle subunit, Shigella flexneri serotype 6, residues Met1 to R83; Helical homopolymer (needle); also called WT MxiH; WT Shigella T3SS needles; source: polymerized in vitro; not shown: hepta-Histidine (His) tag, N-terminal, cleaved
On to B1, for which the binding result was “binds”.
